Results on two substances are retold here after PMC3316158.

Assay [1] concerns the target BRI1 W980 peptide (Arabidopsis). Description: pull-down.
The target of assay [2] is AtCaM6 (Arabidopsis thaliana calmodulin 6), recombinant (Arabidopsis thaliana) (UniProt Q03509). In words: native gel or EMSA.

On to “His6–AtCaM7 (Arabidopsis thaliana calmodulin 7) (from UniProt P59220 1-149) (natural protein)”, for which, in assay [1], the retained CaM7 with Ca^2+ relative to without Ca^2+ (densitometry) came out at 2.7 fold.

For “Peptide representing the CaM-binding domain of mammalian CaMKII (Ca^2+/CaM-dependent protein kinase II)”, the stoichiometry N (mol equivalent of peptide per AtCaM6) in assay [2] was 1.
